Literature values, collected in paper PMC7076691.
pKd: −log10 of the molar value.

Target: Bfd (Pseudomonas aeruginosa) (UniProt Q9HY80)
Sequence of UniProt Q9HY80 (Q9HY80 whole entry): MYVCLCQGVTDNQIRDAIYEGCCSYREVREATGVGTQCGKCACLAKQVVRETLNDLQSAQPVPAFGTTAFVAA

In the case of BfrB (from UniProt Q9HY79), the pKd is listed as 5.52.
